# Source: article PMC3789764
# Target: Ku70 (in Ku70/Ku80ΔC);Ku80ΔC (in Ku70/Ku80ΔC) (human;human, UniProt P12956;P13010 1-609;1-590, |)
# Assay: EMSA
# Conditions: protein: recombinant;recombinant; tags: N-terminal Strep tag II;; copies: 1;1
# Sequence of Ku70 (in Ku70/Ku80ΔC);Ku80ΔC (in Ku70/Ku80ΔC) (P12956 whole entry, stated change not applied, chain 1 of 2): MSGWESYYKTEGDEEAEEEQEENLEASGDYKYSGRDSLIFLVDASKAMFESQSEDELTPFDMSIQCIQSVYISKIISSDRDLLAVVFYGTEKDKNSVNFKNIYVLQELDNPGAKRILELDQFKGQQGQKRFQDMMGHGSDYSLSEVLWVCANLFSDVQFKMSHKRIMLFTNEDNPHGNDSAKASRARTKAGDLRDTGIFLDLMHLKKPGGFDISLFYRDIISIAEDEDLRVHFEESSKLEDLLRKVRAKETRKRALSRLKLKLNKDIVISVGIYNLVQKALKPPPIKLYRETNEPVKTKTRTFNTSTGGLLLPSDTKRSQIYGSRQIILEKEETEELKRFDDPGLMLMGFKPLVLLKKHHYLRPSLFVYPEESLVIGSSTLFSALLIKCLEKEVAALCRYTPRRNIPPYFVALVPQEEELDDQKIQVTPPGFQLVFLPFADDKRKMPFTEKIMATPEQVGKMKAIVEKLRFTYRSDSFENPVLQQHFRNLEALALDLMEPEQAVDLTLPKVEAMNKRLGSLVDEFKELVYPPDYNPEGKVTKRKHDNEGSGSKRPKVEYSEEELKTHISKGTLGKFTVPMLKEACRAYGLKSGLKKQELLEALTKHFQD
# Sequence of Ku70 (in Ku70/Ku80ΔC);Ku80ΔC (in Ku70/Ku80ΔC) (P13010 1-590, stated change not applied, chain 2 of 2): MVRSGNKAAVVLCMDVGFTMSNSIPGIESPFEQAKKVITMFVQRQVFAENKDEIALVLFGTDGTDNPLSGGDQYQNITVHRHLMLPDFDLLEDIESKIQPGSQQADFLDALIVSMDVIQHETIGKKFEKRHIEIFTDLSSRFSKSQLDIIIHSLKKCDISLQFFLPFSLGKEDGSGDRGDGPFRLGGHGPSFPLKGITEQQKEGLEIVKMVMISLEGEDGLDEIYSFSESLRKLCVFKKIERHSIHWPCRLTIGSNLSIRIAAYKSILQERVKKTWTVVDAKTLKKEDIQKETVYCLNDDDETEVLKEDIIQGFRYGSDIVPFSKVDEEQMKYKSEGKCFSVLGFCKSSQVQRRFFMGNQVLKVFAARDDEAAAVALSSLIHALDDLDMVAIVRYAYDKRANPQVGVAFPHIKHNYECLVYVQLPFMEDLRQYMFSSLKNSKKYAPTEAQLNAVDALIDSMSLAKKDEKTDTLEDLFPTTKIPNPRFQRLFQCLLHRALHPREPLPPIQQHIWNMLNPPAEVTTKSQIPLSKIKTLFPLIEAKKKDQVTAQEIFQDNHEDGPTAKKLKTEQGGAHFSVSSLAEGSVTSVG
binder,measurement,value
Cy3 19-bp duplex (dsDNA) DNA 1: GAAAGCTATGGGCGCGGTT DNA 2: AACCGCGCCCATAGCTTTC,binding result,binds
